Test results published in patent US20220184221A1 (NUVOBIO, published 2022).
Where no end group is shown, it is not given here. [ ]: non-standard residue; d: D form. Nle = CCCC[C@H](N)C(=O)O

Assays:
recombinant KDM5C [1] = molecular target: T1, recombinant KDM5C (Homo sapiens (Human), UniProt P41229 1-765); assay: OPAL peptide arrays on cellulose probed with 1 uM His-tagged KDM5C, anti-His-HRP chemiluminescence;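 also: binding of target protein to each arrayed peptide after overnight incubation at 4 °C, read as densitometric chemiluminescence signal intensity per spot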
T1 construct: Expressed in SF9 cells from baculovirus, purified on Ni-NTA and detected with an anti-His antibody; also called KDM5C-His6; JARID1CA-c022; not shown: His tag (KDM5C-His6, vector pFB-CT10HF-LIC)
T1 sequence: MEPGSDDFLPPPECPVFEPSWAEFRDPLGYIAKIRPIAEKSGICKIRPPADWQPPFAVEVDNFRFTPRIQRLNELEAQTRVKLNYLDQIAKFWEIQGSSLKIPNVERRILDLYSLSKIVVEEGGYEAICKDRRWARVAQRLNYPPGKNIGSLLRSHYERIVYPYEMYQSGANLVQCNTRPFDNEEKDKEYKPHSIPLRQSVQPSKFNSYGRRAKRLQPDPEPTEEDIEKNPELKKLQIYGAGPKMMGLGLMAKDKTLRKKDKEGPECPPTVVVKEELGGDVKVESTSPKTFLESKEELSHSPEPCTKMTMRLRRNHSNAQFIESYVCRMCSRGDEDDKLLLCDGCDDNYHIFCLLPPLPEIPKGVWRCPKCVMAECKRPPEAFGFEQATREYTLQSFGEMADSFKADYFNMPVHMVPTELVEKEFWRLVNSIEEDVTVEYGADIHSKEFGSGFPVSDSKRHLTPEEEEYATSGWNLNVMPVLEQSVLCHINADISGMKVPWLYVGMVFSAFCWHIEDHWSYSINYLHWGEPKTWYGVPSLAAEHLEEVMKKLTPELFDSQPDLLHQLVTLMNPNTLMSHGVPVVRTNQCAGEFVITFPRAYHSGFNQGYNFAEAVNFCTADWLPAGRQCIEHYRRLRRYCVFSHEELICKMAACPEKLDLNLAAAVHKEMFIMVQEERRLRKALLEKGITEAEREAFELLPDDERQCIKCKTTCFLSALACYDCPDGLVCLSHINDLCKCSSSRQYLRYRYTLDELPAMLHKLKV

recombinant KDM5C [2] = molecular target: T1, recombinant KDM5C; assay: fluorescence polarization; fluorescein-labelled peptide, recombinant KDM5C serially diluted

TDDQ[Nle]THHH [EP33]: binds (recombinant KDM5C [1]).

TEDQ[Nle]THHH [EP25]: binds (recombinant KDM5C [1]).

TDDN[Nle]THHH [EP40]: binds (recombinant KDM5C [1]).

TEES[Nle]THHH [EP35]: binds (recombinant KDM5C [1]).

TDTS[Nle]THHH [EP27]: binds (recombinant KDM5C [1]).

TEEN[Nle]THHH [EP34]: binds (recombinant KDM5C [1]).

TEDS[Nle]THHH [EP24]: binds (recombinant KDM5C [1]).

TDTT[Nle]THHH [EP21]: binds (recombinant KDM5C [1]).

TEDT[Nle]THHH [EP28]: binds (recombinant KDM5C [1]).

TEEQ[Nle]THHH [EP29]: binds (recombinant KDM5C [1]).

TDTN[Nle]THHH [EP23]: binds (recombinant KDM5C [1]).

TDTQ[Nle]THHH [EP22]: binds (recombinant KDM5C [1]).

TDST[Nle]THHH [EP37]: binds (recombinant KDM5C [1]).

GAKRHRKVLRDNI [EP43]: binds (recombinant KDM5C [1]).

SDQQ[Nle]THHH [EP30]: binds (recombinant KDM5C [1]).

SDQT[Nle]THHH [EP32]: binds (recombinant KDM5C [1]).

SETQKTHHH [EP18]: binds (recombinant KDM5C [1]).

SETSKTHHH [EP19]: binds (recombinant KDM5C [1]).

GAKRHR[Nle]VLRDNI [EP44]: binds (recombinant KDM5C [1]).

SDQQKTHHH [EP10]: binds (recombinant KDM5C [1]).

SDQTKTHHH [EP12]: binds (recombinant KDM5C [1]).

SETQ[Nle]THHH [EP38]: binds (recombinant KDM5C [1]).

SETS[Nle]THHH [EP39]: binds (recombinant KDM5C [1]).

TDDQKTHHH [EP13]: binds (recombinant KDM5C [1]).

TDTNKTHHH [EP3]: binds (recombinant KDM5C [1]).

TDDNKTHHH [EP20]: binds (recombinant KDM5C [1]).

TDTTKTHHH [EP1]: binds (recombinant KDM5C [1]).

TEENKTHHH [EP14]: binds (recombinant KDM5C [1]).

TDSTKTHHH [EP17]: binds (recombinant KDM5C [1]).

TDTQKTHHH [EP2]: binds (recombinant KDM5C [1]).

TDTSKTHHH [EP7]: binds (recombinant KDM5C [1]).

B1: EP4 (peptide)
peptide: TEDSKTHHH
modifications: also: fluorescein label in FP assay, end not given here
notes: Fluorescein-labelled in the fluorescence polarization assay; also called EP4 peptide
B1 showed a Kd (recombinant KDM5C [2]) of 0.11 nM.

TEDQKTHHH [EP5]: binds (recombinant KDM5C [1]).

TEESKTHHH [EP15]: binds (recombinant KDM5C [1]).

TEDTKTHHH [EP8]: binds (recombinant KDM5C [1]).

TEEQKTHHH [EP9]: binds (recombinant KDM5C [1]).

RTKQTARKSTGG [EP41]: binds (recombinant KDM5C [1]).

TTQS[Nle]THHH [EP26]: binds (recombinant KDM5C [1]).

TTQT[Nle]THHH [EP36]: binds (recombinant KDM5C [1]).

TTQQ[Nle]THHH [EP31]: binds (recombinant KDM5C [1]).

TTQSKTHHH [EP6]: binds (recombinant KDM5C [1]).

TTQQKTHHH [EP11]: binds (recombinant KDM5C [1]).

TTQTKTHHH [EP16]: binds (recombinant KDM5C [1]).
